Experimental data taken from patent US20130225488A1 (CADILA HEALTHCARE, published 2013).
Where no end group is shown, it is not given here. [ ]: non-standard residue; d: D form. Ac3c = NC1(C(=O)O)CC1; Aib = CC(C)(N)C(=O)O

Assays:
Human GLP-1 receptor = Human GLP-1 receptor (human, UniProt P43220 24-463); assay: cell-based or functional assay
Human glucagon receptor = Human glucagon receptor (human, UniProt P47871 26-477); assay: cell-based or functional assay

Human GLP-1 receptor, sequence (P43220 24-463): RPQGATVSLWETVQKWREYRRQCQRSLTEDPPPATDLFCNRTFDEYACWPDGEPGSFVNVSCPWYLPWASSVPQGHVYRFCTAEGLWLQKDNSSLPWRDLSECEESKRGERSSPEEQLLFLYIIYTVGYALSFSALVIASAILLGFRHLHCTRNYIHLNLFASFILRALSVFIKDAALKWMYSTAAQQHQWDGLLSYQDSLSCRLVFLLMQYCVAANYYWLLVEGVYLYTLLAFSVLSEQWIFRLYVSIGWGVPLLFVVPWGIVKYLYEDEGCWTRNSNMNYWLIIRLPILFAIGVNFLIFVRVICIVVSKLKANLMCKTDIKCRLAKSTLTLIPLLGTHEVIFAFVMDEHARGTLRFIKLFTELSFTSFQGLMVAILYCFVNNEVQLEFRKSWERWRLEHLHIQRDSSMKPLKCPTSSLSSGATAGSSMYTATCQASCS

Row | Binder | cAMP release, % activity with respect to control; test compound 1 nM (Human GLP-1 receptor) | cAMP release, % activity with respect to control; test compound 10 nM (Human GLP-1 receptor) | cAMP release, % activity with respect to control; test compound 100 nM (Human GLP-1 receptor) | cAMP release, % activity with respect to control; test compound 1 µM (Human GLP-1 receptor) | cAMP release, % activity with respect to control; test compound 10 µM (Human GLP-1 receptor) | cAMP production with saturated glucagon peptide; test compound 1 nM (Human glucagon receptor) | cAMP production with saturated glucagon peptide; test compound 10 nM (Human glucagon receptor) | cAMP production with saturated glucagon peptide; test compound 100 nM (Human glucagon receptor) | cAMP production with saturated glucagon peptide; test compound 10 µM (Human glucagon receptor) | cAMP production with saturated glucagon peptide; test compound '1 nM' (Human glucagon receptor)
1 | H[Ac3c]QGTFTSD[Bip(OMe)][Bip(2Me)] [Seq. ID. No. 17: H-(ACP)-QGTFTSD-Bip(OMe)-Bip(2Me)] | 78% | 99% | 99% | 99% | 99% | 2 pmol/ml/µg prt | 0 pmol/ml/µg prt | 0 pmol/ml/µg prt | 0 pmol/ml/µg prt | 0 pmol/ml/µg prt
2 | H[Aib]QGTFTSD[Bip(OMe)][Bip(2CF3)] [Seq. ID. No. 16: H-Aib-QGTFTSD-Bip(OMe)-Bip(2CF3)] | 69% | 98% | 99% | 99% | 99% | 4 pmol/ml/µg prt | 2 pmol/ml/µg prt | 0 pmol/ml/µg prt | 0 pmol/ml/µg prt | 0 pmol/ml/µg prt
3 | H[Ac3c]QGTFTSD[Bip(OMe)][Bip(Pyr)] [Seq. ID. No. 18: H-(ACP)-QGTFTSD-Bip(OMe)-Bip(Pyr)] | 86% | 99% | 99% | 99% | 99% | 0 pmol/ml/µg prt | 0 pmol/ml/µg prt | 0 pmol/ml/µg prt | 0 pmol/ml/µg prt | 0 pmol/ml/µg prt
